Measurements as given in patent publication US20210196796A1 (SYNTHEKINE, published 2021).

T1: orthogonal hCD122 receptor (hoRb), hCD122 with H133D and Y134F (human, UniProt P14784 27-550)
T1 sequence: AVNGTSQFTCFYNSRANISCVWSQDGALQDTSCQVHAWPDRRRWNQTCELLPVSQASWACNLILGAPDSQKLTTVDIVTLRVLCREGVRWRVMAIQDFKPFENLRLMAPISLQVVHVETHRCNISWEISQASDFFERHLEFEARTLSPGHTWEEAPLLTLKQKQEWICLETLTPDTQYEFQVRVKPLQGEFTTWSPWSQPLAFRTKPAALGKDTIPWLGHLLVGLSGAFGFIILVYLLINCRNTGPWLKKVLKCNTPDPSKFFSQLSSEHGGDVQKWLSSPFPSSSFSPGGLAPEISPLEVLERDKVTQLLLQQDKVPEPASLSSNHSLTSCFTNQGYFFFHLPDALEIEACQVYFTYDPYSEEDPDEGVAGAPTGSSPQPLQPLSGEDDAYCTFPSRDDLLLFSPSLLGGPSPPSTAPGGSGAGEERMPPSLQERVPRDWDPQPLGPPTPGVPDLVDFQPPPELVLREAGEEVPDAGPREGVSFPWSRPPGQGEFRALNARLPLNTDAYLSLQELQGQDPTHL


Key:
[1] = molecular target: T1, orthogonal hCD122 receptor (hoRb), …; experiment: cell-based or functional assay
[2] = molecular target: T1, orthogonal hCD122 receptor (hoRb), …; experiment: cell-based or functional assay; remark: listed apart in the source
For Relative Proliferation Fold Change 3F8 1:10 in this document: reference of the scale not given here.
For Relative Proliferation Fold Change 3F8 1:2 in this document: reference of the scale not given here.
For Relative Proliferation Fold Change 3F8 1:50 in this document: reference of the scale not given here.
For Relative Proliferation Fold Change NKL 1:10 in this document: reference of the scale not given here.
For Relative Proliferation Fold Change NKL 1:2 in this document: reference of the scale not given here.
For Relative Proliferation Fold Change NKL 1:50 in this document: reference of the scale not given here.

NKL Ortho Proliferation Signal 1:2 [1] | NKL Ortho Proliferation Signal 1:10 [1] | NKL Ortho Proliferation Signal 1:50 [1] | Relative Proliferation Fold Change NKL 1:2 [1] [fold] | Relative Proliferation Fold Change NKL 1:10 [1] [fold] | Relative Proliferation Fold Change NKL 1:50 [1] [fold] | 3F8 Ortho Proliferation Signal 1:2 [2] [cts/min] | 3F8 Ortho Proliferation Signal 1:10 [2] [cts/min] | 3F8 Ortho Proliferation Signal 1:50 [2] [cts/min] | Relative Proliferation Fold Change 3F8 1:2 [2] [fold] | Relative Proliferation Fold Change 3F8 1:10 [2] [fold] | Relative Proliferation Fold Change 3F8 1:50 [2] [fold] | Binder
13000 | 10700 | 6780 | 1.11 | 0.78 | 0.53 | 18600 | 10500 | 3500 | 0.45 | 1.2 | 0.77 | SQVLIA (ligand) APTSSSTKKTQLQLSQLLVLLIAILNGINNYKNPKLTRMLTFKFYMPKKATELKHLQCLEEELKPLEEVLNLAQSKNFHLRPRDLISNINVIVLELKGSETTFMCEYADETATIVEFLNRWITFCQSIISTLT
50600 | 36500 | 17300 | 4.55 | 3 | 1.4 | 32600 | 35100 | 19100 | 80.2 | 56.4 | 25.8 | SQVLNA (ligand) APTSSSTKKTQLQLSQLLVLLNAILNGINNYKNPKLTRMLTFKFYMPKKATELKHLQCLEEELKPLEEVLNLAQSKNFHLRPRDLISNINVIVLELKGSETTFMCEYADETATIVEFLNRWITFCQSIISTLT
52000 | 36000 | 17900 | 3.55 | 2.52 | 1.33 | 40800 | 32600 | 20500 | 36 | 24.7 | 34.3 | SQVLKW (ligand) APTSSSTKKTQLQLSQLLVLLKWILNGINNYKNPKLTRMLTFKFYMPKKATELKHLQCLEEELKPLEEVLNLAQSKNFHLRPRDLISNINVIVLELKGSETTFMCEYADETATIVEFLNRWITFCQSIISTLT
65100 | 44700 | 23200 | 3.54 | 2.5 | 1.43 | 42100 | 48500 | 21000 | 42.8 | 48.8 | 17.4 | SQVLKF (ligand) APTSSSTKKTQLQLSQLLVLLKFILNGINNYKNPKLTRMLTFKFYMPKKATELKHLQCLEEELKPLEEVLNLAQSKNFHLRPRDLISNINVIVLELKGSETTFMCEYADETATIVEFLNRWITFCQSIISTLT
44400 | 39200 | 18500 | 4 | 2.7 | 1.49 | 25700 | 17300 | 18700 | 39.9 | 14.6 | 13.7 | SQVLKH (ligand) APTSSSTKKTQLQLSQLLVLLKHILNGINNYKNPKLTRMLTFKFYMPKKATELKHLQCLEEELKPLEEVLNLAQSKNFHLRPRDLISNINVIVLELKGSETTFMCEYADETATIVEFLNRWITFCQSIISTLT
26400 | 19400 | 7650 | 2.27 | 1.38 | 0.6 | 24100 | 15100 | 6550 | 0.46 | 10.9 | 5.95 | SQVLTA (ligand) APTSSSTKKTQLQLSQLLVLLTAILNGINNYKNPKLTRMLTFKFYMPKKATELKHLQCLEEELKPLEEVLNLAQSKNFHLRPRDLISNINVIVLELKGSETTFMCEYADETATIVEFLNRWITFCQSIISTLT
52400 | 43800 | 21900 | 3.51 | 2.64 | 1.38 | 39100 | 50600 | 24600 | 29.5 | 50 | 30.3 | SQVLKY (ligand) APTSSSTKKTQLQLSQLLVLLKYILNGINNYKNPKLTRMLTFKFYMPKKATELKHLQCLEEELKPLEEVLNLAQSKNFHLRPRDLISNINVIVLELKGSETTFMCEYADETATIVEFLNRWITFCQSIISTLT
53000 | 26000 | 13300 | 3.46 | 1.63 | 0.87 | 32600 | 35100 | 19100 | 80.2 | 56.4 | 25.8 | SQVLHA (ligand) APTSSSTKKTQLQLSQLLVLLHAILNGINNYKNPKLTRMLTFKFYMPKKATELKHLQCLEEELKPLEEVLNLAQSKNFHLRPRDLISNINVIVLELKGSETTFMCEYADETATIVEFLNRWITFCQSIISTLT
35100 | 22700 | 11600 | 2.55 | 1.65 | 0.95 | 33400 | 32300 | 19600 | 43 | 38.8 | 30.2 | SQVLDA (ligand) APTSSSTKKTQLQLSQLLVLLDAILNGINNYKNPKLTRMLTFKFYMPKKATELKHLQCLEEELKPLEEVLNLAQSKNFHLRPRDLISNINVIVLELKGSETTFMCEYADETATIVEFLNRWITFCQSIISTLT
13200 | 11600 | 8390 | 1.21 | 0.83 | 0.63 | 12500 | 8030 | 2510 | 29.7 | 9.79 | 2.73 | SQVLYA, E116G (ligand) APTSSSTKKTQLQLSQLLVLLYAILNGINNYKNPKLTRMLTFKFYMPKKATELKHLQCLEEELKPLEEVLNLAQSKNFHLRPRDLISNINVIVLELKGSETTFMCEYADETATIVEFLNRWITFCQSIISTLT
60800 | 68400 | 34300 | 4.33 | 4.06 | 2.28 | 33400 | 32300 | 19600 | 43 | 38.8 | 30.2 | SQVLRA (ligand) APTSSSTKKTQLQLSQLLVLLRAILNGINNYKNPKLTRMLTFKFYMPKKATELKHLQCLEEELKPLEEVLNLAQSKNFHLRPRDLISNINVIVLELKGSETTFMCEYADETATIVEFLNRWITFCQSIISTLT
27600 | 19000 | 8950 | 2.87 | 1.43 | 0.73 | 6220 | 4410 | 2930 | 12.9 | 7.97 | 2.82 | ΔM23, SQVLK- (ligand) APTSSSTKKTQLQLSQLLVLLKILNGINNYKNPKLTRMLTFKFYMPKKATELKHLQCLEEELKPLEEVLNLAQSKNFHLRPRDLISNINVIVLELKGSETTFMCEYADETATIVEFLNRWITFCQSIISTLT
